Experimental data reported in paper PMC12903045.

Target: NaV1.5 (main cardiac voltage-gated sodium channel) (mouse (endogenous in heart)) (UniProt Q9JJV9)
Experiment: co-IP

Sequence of UniProt Q9JJV9 (Q9JJV9 whole entry): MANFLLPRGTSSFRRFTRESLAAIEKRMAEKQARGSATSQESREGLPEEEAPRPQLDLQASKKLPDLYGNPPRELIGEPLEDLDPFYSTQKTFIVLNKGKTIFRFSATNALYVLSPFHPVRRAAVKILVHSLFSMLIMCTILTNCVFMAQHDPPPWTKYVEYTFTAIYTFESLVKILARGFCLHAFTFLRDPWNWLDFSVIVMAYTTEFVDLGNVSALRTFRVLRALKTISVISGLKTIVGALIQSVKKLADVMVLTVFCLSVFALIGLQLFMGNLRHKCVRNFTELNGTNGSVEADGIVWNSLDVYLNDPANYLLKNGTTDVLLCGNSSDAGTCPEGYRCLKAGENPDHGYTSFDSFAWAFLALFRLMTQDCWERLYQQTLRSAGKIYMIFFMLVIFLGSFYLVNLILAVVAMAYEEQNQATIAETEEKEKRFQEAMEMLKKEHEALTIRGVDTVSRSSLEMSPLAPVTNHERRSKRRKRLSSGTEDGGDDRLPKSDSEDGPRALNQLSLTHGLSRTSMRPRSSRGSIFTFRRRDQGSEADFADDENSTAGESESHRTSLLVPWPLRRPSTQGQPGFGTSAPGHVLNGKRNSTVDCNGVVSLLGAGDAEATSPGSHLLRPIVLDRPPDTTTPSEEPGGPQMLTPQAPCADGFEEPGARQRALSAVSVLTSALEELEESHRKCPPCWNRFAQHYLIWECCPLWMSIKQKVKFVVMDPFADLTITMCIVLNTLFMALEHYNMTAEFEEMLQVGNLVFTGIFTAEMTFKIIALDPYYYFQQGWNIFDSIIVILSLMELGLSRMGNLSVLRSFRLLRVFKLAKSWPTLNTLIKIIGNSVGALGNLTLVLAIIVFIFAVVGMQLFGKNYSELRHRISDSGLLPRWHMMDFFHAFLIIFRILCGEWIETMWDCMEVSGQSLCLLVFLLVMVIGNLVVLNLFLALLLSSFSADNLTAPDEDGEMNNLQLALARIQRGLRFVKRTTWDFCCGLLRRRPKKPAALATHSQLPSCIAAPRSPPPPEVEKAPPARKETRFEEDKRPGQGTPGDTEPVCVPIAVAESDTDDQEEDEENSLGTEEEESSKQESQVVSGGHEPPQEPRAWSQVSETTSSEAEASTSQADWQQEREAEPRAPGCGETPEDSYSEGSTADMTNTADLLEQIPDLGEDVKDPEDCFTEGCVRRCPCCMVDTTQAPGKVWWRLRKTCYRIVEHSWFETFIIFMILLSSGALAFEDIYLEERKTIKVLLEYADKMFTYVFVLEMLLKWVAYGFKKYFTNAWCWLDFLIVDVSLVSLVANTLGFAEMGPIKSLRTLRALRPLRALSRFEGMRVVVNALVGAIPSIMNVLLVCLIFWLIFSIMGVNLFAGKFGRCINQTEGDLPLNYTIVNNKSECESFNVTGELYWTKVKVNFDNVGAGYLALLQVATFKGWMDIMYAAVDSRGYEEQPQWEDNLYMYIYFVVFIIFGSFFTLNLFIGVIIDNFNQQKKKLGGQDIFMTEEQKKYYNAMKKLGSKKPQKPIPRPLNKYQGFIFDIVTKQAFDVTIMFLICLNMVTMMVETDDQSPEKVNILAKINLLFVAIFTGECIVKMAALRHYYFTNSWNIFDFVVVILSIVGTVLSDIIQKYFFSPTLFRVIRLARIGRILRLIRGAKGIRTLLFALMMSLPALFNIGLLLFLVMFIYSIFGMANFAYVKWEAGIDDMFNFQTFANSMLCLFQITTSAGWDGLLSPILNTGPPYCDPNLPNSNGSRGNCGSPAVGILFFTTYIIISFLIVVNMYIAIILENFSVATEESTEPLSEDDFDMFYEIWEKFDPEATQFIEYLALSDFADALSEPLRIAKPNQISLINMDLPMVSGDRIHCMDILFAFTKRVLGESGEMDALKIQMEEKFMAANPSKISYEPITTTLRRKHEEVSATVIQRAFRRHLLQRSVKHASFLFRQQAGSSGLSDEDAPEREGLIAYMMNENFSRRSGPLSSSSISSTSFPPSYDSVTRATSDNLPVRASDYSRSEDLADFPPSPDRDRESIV

FGF13 (fibroblast growth factor homologous factor 13) (from UniProt P70377 1-245) (natural protein)
percent of FGF13 depleted from the lysate by immunoprecipitation of NaV1.5: 35%
